From the supplement of paper PMC9170038 come the findings set out here.

This data set has as its system MS2 coat protein. Nature of the data set: apparent KD of MS2 coat protein; designed switch direction (-1 OFF switch, 1 ON switch): -1; higher = weaker reporter binding. Put shortly: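 Designed RNA switches sharing common flanks were transcribed on Illumina chips by stalled E. coli RNA polymerase. They were titrated with SNAP-549-labelled MS2 coat protein, from 0.7 or 1.5 nM doubling to 3 µM, in Tris-HCl pH 7.5 buffer with KCl, MgCl2, BSA, DTT, tRNA and Tween-20. Titrations ran without input, with 200 uM small-molecule ligand, or with an oligonucleotide input. The apparent KD of each design is the median over its clusters, after curve-fitting of normalised cluster fluorescence.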

The mark [1] stands for this setting: Eterna round: R95, input ligand: FMN 200 uM.
[2] abbreviates: Eterna round: R95, input ligand: microRNA oligo, concentration not stated.
Setting [3] is: Eterna round: R95, input ligand: none.
The mark [4] stands for this setting: input ligand: microRNA oligo, concentration not stated.

For the sequence “GAUUAGGUAGGAUAUACGUAGUGAGCCAGCGAGAGCUGGUAACAUGAGGAUCACCCAUGUAGAAGGACCAUUAA [Xeorqulaus] (Eterna round: R97, puzzle: Exclusion 2)”, the “apparent KD of MS2 coat protein” value was determined as 145 nM (input ligand: FMN 200 uM) and 72.4 nM (input ligand: none).
As for “GAUUAGUGAGGAUAUGGUAAAGAUAAGAUGAUGAAAGAACUCCAGAAGGCACAUGAGGAUCACCCAUGUAGUAG [Mat - Exclusion 4 - Mod of JL - D21] (puzzle: Exclusion 4)”, the “apparent KD of MS2 coat protein” value is 17.1 nM under setting [1], 20.4 nM under setting [2] and 20.1 nM under setting [3].
For the sequence “GAUUAUGCAAGCUUUCGGGACAUGAGGAUCACCCAUGUUCGUCUUAUUGAUCUAGGUACGCUGACGUACCUAGAUCU [JL-sv1-2.33 Brourd mod] (puzzle: Sensor v3, turn-off variant 1)”, the “apparent KD of MS2 coat protein” value under setting [1] was 17 nM and the “apparent KD of MS2 coat protein” value under setting [2] was 65.2 nM.
Consider “GAUUAUGCGAGCUUUAGGGACAUGAGGAUCACCCAUGUUCGUCUUAUUAAUCUAGGUACGCUGACAUACCUAAAUCU [JMF 98] (puzzle: Sensor v3, turn-off variant 1)”, for which the “apparent KD of MS2 coat protein” value under setting [1] was found to be 21.6 nM, the “apparent KD of MS2 coat protein” value under setting [2] stood at 30 nM and the “apparent KD of MS2 coat protein” value under setting [3] turned out to be 20.6 nM.
Taken in the same sequence, the figures for “GAUUAUGCGAGCUUUAGGGACAUGAGGAUCACCCAUGUUCGUCUUAUUAGUCUGGGUACGCUAACAUACCUAAAUCU [JMF 43] (puzzle: Sensor v3, turn-off variant 1)” were 30.1 nM, 41.4 nM and 28.7 nM.
On to “GAUUAUGCGAGCUUUAGGGACAUGAGGAUCACCCAUGUUCGUCUUAUUGGUCUAGGUGCACUAACAUACCUAAAUCU [JMF 36] (puzzle: Sensor v3, turn-off variant 1)”, for which the “apparent KD of MS2 coat protein” value was determined as 22.3 nM under setting [1], 33.7 nM under setting [2] and 23.6 nM under setting [3].
On the same counts, the results for “GAUUAUGCGAGCUUUAGGGACAUGAGGAUCACCCAUGUUCGUCUUAUUGGUCUGGAUACACUAACAUACCUAAAUCU [JMF 14] (puzzle: Sensor v3, turn-off variant 1)” are 19.2 nM, 27.9 nM and 21.2 nM.
For “GAUUGACAUGAGGAUCACCCAUGUGAGGAUAUCGGCCGGACCUUGUUAGCUUCCAUCGCGAGAAGGUACAUAGG [Exclusion 1 V34] (puzzle: Exclusion 1)”, the “apparent KD of MS2 coat protein” value under setting [2] came to 16.9 nM.
As to “GAUUGACAUGAGGAUCACCCAUGUGAGGAUAUCGGCUGGACCGUGUUGGCUUGCUUUCCGAGAAGGCGCAUAGG [Exclusion 1 V50] (puzzle: Exclusion 1)”, the “apparent KD of MS2 coat protein” value under setting [1] turned out to be 81.7 nM, the “apparent KD of MS2 coat protein” value under setting [2] turned out to be 36.9 nM and the “apparent KD of MS2 coat protein” value under setting [3] was found to be 45.9 nM.
With “GAUUGAGAGCAGGAUAUCAUAGAAAUGUAUGAAUGAGAAGGGCUCACAUGAGGAUCACCCAUGUGGUCCUAGAU [JL Dibiri mod 18] (puzzle: Exclusion 6)”, under setting [2], the “apparent KD of MS2 coat protein” value amounted to 21.9 nM.
With “GAUUUACAUGAGGAUCACCCAUGUGAGGAUAUAUUGUUAUUUUUAAUAUUUUUUAGUGGUAGAAGGCGCGUGAU [JR_Exc1_Sub016] (Eterna round: R97, puzzle: Exclusion 1)”, the “apparent KD of MS2 coat protein” value by setting is: (input ligand: FMN 200 uM) 24.2 nM; (input ligand: none) 26.9 nM.
Taken in the same sequence, the figures for “GCAAAAUAUCAGGAUAUGACUAAUUGCGUUAAGUCAGAAGGGAUAACAUGAGGAUCACCCAUGUGAUAUAGUGU [JR_Ex6_Sub030] (Eterna round: R97, puzzle: Exclusion 6)” were 237 nM and 169 nM.
Regarding “GCAAGUUUUUUGUUUUUUAACAUGAGGAUCACCCAUGUAUUUUUAUAGUAUGUGUGAAUAAGAUCUCGUGGUCUUAG [JR_SV3TOV1_Sub100] (puzzle: Sensor v3, turn-off variant 1)”, the “apparent KD of MS2 coat protein” value reads like this: under setting [1], 73.3 nM; under setting [2], 203 nM; under setting [3], 77.2 nM.
Taken in the same sequence, the figures for “GCACGCAAAGGAUAUCGGAAAGAAAACAUGAGGAUCACCCAUGUAUAUAUCAAAUGGGUGCGAGAAGGUUGAGUGA [Xeleonge] (puzzle: Exclusion 5)” were 192 nM, 60 nM and 94 nM.
On to “GCACGGAGUGUAGGAUAUUAGUGCGAUUAGCACUGAGAAGGACAUGAGGAUCACCCAUGUUCCUCAAUAAAAUACCUUCCGUGC [Eli exng1 - 040] (Eterna round: R96, puzzle: Exclusion NG 1)”, for which the “apparent KD of MS2 coat protein” value (input ligand: FMN 200 uM) amounted to 13.4 nM, the “apparent KD of MS2 coat protein” value under setting [4] turned out to be 10 nM and the “apparent KD of MS2 coat protein” value (input ligand: none) stood at 13.7 nM.
Regarding “GCACGGAUUGUAGGAUAUCUGUGCGAUUAGCUCAGAGAAGGACACAUGAGGAUCACCCAUGUUACCUCAAUUGGCCUUCCGUGC [Eli exng1 - 031] (Eterna round: R96, puzzle: Exclusion NG 1)”, the “apparent KD of MS2 coat protein” value was 128 nM (input ligand: FMN 200 uM), 70.7 nM under setting [4] and 116 nM (input ligand: none).
Taken in the same sequence, the figures for “GCACGGUUGCUAGGAUAUCCUUGCGAUUAGCAAGGAGAAGGAGCACAUGAGGAUCACCCAUGUACCUCAAUAAUCCUUCCGUGC [Eli exng1 - 028] (Eterna round: R96, puzzle: Exclusion NG 1)” were 12.9 nM, 13.2 nM and 15.6 nM.
As for “GCACUGCGAGGAUAUACAUGAGGAUCACCCAUGUAUCGGUAGUCAAGGUUAAUUUAAGGUAGAAGGCGCGUAUU [JR_Ex3_Sub006] (Eterna round: R97, puzzle: Exclusion 3)”, the “apparent KD of MS2 coat protein” value was 23.9 nM (input ligand: FMN 200 uM) and 22.7 nM (input ligand: none).
With “GCACUGGCAGGAUAUACAUGAGGAUCACCCAUGUGAUCCCUUAGGUACAAAAGUACCAGUAGAAGGGCCUGUGC [Omei Ex3 Model Bachelor's Dilema v50] (Eterna round: R97, puzzle: Exclusion 3)”, the “apparent KD of MS2 coat protein” value reads like this: (input ligand: FMN 200 uM) 315 nM; (input ligand: none) 564 nM.
For the sequence “GCAGAAAGUGUAGGAUAUCUAAUAAAGCGGAAACGCAAGACAUGAGGAUCACCCAUGUGUCCGGAAGAGAAGGGCAAAAGCUGC [EXNG2 V2 c] (Eterna round: R96, puzzle: Exclusion NG 2)”, the “apparent KD of MS2 coat protein” value is, setting by setting: (input ligand: FMN 200 uM) 26.6 nM; under setting [4], 22.7 nM; (input ligand: none) 38.2 nM.
“GCAGAAUGAGUUAGGAUAUGAUGAUUUUUUUUAUAUCAGAAGGAACUUGAGGAUCACCCAAGUUAAGAUAGGGU [JR_BMEx4_Sub067] (Eterna round: R97, puzzle: Brourd's mod of Exclusion 4)”: the “apparent KD of MS2 coat protein” value (input ligand: FMN 200 uM) was 89.2 nM and the “apparent KD of MS2 coat protein” value (input ligand: none) is 138 nM.
Regarding “GCAGCAACUCUAAUCAACUAAACAUGAGGAUCACCCAUGUCUCAGGAUAUGGUCUGGAUUACAGGCCAGAAGGGAGAAAGCUGC [Eli exng3 - 043] (Eterna round: R96, puzzle: Exclusion NG 3)”, the “apparent KD of MS2 coat protein” value runs as follows: (input ligand: FMN 200 uM) 16.2 nM; under setting [4], 11.2 nM; (input ligand: none) 12.3 nM.
On the same counts, the results for “GCAGCAUAGUCGGAAUACGACAUACAUGAGGAUCACCCAUGUCAGGAUAUGGUCUGGAUUACAGGCCAGAAGGGACGAAGCUGC [Eli exng3 - 006] (Eterna round: R96, puzzle: Exclusion NG 3)” are 18.4 nM, 17.6 nM and 21.5 nM.
With “GCAGGAUAAGUGAGGAUAUACCUAUGGAUACAUAGGUAGAAGGCACAUGAGGAUCACCCAUGUUCCUUGCCUGC [Fiskers BMX 4 - 67] (puzzle: Brourd's mod of Exclusion 4)”, the “apparent KD of MS2 coat protein” value under setting [2] turned out to be 13.2 nM.
Still for that read-out and setting: with “GCAGGAUAAGUGAGGAUAUACCUAUGGAUACAUAGGUAGAAGGUACAUGAGGAUCACCCAUGUUCCUUACCUGC [Fiskers BMX 4 - 65] (puzzle: Brourd's mod of Exclusion 4)” the figure was 11.7 nM.
Regarding “GCAGGCUUUUGCUCGCCUUACAUGAGGAUCACCCAUGUGGGCCCGGGCCCGGGCCCGCCGGGCCCGGGCCCGGGCCC (Eterna round: R97, puzzle: Sensor, turn-off variant 1)”, the “apparent KD of MS2 coat protein” value was 30.8 nM (input ligand: FMN 200 uM) and 32.1 nM (input ligand: none).
With “GCAGGUCAAGGAUAUACAUGAGGAUCACCCAUGUAGAUCAACCAGCGAUAGCUGGAAUGUAGAAGGUGACCUGC [E3/5-C2] (Eterna round: R97, puzzle: Exclusion 3)”, the “apparent KD of MS2 coat protein” value worked out at 67.6 nM (input ligand: FMN 200 uM) and 23.7 nM (input ligand: none).
Take “GCAUGAAUGUAGGAUAUCUGUAGGGCCCGGACCAGAGAAGGACGCACAUGAGGAUCACCCAUGUCUUGAUGAUC [Eternabot (L1) Solution 15] (Eterna round: R97, puzzle: Exclusion 6)”: the “apparent KD of MS2 coat protein” value was found to be 540 nM (input ligand: FMN 200 uM) and 239 nM (input ligand: none).
In the case of “GCAUGGUGAGGAUAUGCAGAAGGGCAACGGUCAUCAUGACUACAUGAGGAUCACCCAUGUAGAAGGCACACAUG [Betearor] (puzzle: Exclusion 2)”, under setting [2], the “apparent KD of MS2 coat protein” value came out at 42.5 nM.
For the sequence “GCAUGUCAGUAGGAUAUGCAGCACUUGAUACCUGCAGAAGGACUGACAUGAGGAUCACCCAUGUCUCGGGUGCU [EX6 A.10] (Eterna round: R97, puzzle: Exclusion 6)”, the “apparent KD of MS2 coat protein” value worked out at 16.8 nM (input ligand: FMN 200 uM) and 149 nM (input ligand: none).
Consider “GCAUUGAGUGUGAGGAUAUGCUGGUCGUAAGAUCAGCAGAAGGCACAUGAGGAUCACCCAUGUGAAAACAAUGC [Mat - Exclusion 4 - JL Mod - D67] (puzzle: Brourd's mod of Exclusion 4)”, for which the “apparent KD of MS2 coat protein” value worked out at 125 nM under setting [1], 23 nM under setting [2] and 23.4 nM under setting [3].
